Target: endogenous phosphorylated p38 (P-p38) (human (endogenous in Huh7.5.1)) (UniProt Q16539)
UniProt Q16539, sequence (Q16539 whole entry): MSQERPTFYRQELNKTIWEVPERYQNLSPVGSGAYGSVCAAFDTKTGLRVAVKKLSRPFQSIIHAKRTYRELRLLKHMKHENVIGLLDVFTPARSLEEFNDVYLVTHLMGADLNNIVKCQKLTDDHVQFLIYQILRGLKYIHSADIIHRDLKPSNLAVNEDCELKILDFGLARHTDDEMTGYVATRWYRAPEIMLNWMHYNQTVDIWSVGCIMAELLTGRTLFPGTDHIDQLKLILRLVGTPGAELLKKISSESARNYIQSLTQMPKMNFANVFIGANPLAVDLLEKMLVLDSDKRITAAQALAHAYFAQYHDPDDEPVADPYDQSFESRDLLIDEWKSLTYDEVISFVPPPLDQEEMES

Substance “HCV core protein N-terminal peptide (CN-peptide)” has a reduction of intracellular HCV RNA (qRT-PCR) in JFH1-infected primary human hepatocytes incubated with the CN-peptide for 72 h; the pair blocked is p38α and the HCV core protein (m8 and m9) of 91%.

— paper PMC7667676
